Legend:
Experiment in all cases: Kinase Profiling Assay
Type in all cases: biochemical
Conditions in all cases: 100 μM
SRPK2(h) = SRPK2(h) (Homo sapiens, UniProt P78362)
Flt1(h) = Flt1(h) (Homo sapiens, UniProt P17948)
ACK1(h) = ACK1(h) (Homo sapiens, UniProt Q07912)
IGF-1R(h), activated = IGF-1R(h), activated (Homo sapiens, UniProt P08069)
MST3(h) = MST3(h) (Homo sapiens, UniProt Q9Y6E0)
Hck(h) activated = Hck(h) activated (Homo sapiens, UniProt P08631)
EGFR(T790M, L858R)(h) = EGFR(T790M, L858R)(h) (Homo sapiens, UniProt P00533, L858R/T790M)
EGFR(L858R)(h) = EGFR(L858R)(h) (Homo sapiens, UniProt P00533, L858R)
NEK11(h) = target: T1, NEK11(h) (Homo sapiens, UniProt Q8NG66)
T1 sequence (Q8NG66 1-645): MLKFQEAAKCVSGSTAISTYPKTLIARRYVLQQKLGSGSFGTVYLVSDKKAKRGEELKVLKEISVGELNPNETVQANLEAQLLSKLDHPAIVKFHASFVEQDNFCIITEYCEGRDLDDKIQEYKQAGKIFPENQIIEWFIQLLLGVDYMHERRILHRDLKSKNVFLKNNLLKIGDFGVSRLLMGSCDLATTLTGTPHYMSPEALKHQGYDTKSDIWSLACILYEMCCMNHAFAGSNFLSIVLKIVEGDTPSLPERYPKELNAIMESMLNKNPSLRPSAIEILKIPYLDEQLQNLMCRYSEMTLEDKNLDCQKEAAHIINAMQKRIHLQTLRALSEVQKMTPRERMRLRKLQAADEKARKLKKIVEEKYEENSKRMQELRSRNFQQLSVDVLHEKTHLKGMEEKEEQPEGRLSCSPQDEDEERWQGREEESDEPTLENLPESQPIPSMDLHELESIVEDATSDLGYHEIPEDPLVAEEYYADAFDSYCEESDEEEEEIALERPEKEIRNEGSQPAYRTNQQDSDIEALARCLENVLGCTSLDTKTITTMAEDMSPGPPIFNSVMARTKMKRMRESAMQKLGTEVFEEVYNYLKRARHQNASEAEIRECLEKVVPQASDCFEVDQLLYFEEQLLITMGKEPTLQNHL

NEK6(h) = NEK6(h) (Homo sapiens, UniProt Q9HC98)
Chain of NEK6(h) (Q9HC98 whole entry): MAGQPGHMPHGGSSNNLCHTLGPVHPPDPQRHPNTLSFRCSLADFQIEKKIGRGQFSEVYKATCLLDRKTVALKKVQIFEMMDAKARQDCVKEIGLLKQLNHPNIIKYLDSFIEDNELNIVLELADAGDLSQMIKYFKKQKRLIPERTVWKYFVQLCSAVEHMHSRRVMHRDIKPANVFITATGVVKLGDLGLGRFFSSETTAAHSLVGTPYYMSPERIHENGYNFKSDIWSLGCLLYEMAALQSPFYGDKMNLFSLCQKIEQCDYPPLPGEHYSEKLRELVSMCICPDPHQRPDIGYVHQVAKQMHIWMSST

EphB4(h) = target: T2, EphB4(h) (Homo sapiens, UniProt P54760)
T2 sequence (P54760 16-987): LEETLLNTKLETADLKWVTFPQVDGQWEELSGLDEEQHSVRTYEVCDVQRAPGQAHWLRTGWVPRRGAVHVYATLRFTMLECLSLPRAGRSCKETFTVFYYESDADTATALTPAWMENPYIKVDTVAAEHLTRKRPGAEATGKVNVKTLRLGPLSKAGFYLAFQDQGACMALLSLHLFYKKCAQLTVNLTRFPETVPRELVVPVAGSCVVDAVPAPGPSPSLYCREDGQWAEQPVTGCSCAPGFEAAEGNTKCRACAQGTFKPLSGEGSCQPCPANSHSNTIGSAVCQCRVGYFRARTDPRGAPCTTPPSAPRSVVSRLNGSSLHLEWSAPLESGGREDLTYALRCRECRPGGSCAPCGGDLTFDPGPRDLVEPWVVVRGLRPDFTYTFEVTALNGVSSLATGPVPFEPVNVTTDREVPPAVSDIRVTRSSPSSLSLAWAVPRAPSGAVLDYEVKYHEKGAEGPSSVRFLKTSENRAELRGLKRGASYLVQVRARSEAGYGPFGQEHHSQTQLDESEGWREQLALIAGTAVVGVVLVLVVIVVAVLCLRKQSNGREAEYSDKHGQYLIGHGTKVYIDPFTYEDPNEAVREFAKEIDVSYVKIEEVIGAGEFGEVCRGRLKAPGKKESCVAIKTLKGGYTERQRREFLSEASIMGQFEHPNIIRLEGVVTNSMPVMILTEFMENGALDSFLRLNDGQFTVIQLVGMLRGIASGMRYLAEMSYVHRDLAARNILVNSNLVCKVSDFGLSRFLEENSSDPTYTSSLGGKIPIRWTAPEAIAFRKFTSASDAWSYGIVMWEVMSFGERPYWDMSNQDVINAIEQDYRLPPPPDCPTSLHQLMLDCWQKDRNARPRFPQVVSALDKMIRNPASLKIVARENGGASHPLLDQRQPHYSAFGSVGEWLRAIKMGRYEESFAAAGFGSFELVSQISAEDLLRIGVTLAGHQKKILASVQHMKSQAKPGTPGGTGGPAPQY

Mnk2(h) = Mnk2(h) (Homo sapiens, UniProt Q9HBH9)
GSK3α(h) = GSK3α(h) (Homo sapiens, UniProt P49840)
Chain of GSK3α(h) (P49840 whole entry): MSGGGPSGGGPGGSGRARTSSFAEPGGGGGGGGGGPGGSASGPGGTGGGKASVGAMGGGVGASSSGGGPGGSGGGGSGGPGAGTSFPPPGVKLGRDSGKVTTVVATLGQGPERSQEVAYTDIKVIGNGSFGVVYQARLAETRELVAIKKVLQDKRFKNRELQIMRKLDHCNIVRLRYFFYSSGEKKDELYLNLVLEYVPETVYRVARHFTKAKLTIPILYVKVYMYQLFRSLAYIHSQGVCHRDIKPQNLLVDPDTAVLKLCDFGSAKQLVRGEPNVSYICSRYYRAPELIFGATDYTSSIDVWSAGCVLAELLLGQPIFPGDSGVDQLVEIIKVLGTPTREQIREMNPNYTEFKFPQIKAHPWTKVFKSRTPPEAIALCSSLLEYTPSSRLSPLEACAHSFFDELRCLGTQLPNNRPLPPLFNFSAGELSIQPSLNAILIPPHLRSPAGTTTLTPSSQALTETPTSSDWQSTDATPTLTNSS

MST2(h) = target: T3, MST2(h) (Homo sapiens, UniProt Q13188)
T3 sequence (Q13188 1-491): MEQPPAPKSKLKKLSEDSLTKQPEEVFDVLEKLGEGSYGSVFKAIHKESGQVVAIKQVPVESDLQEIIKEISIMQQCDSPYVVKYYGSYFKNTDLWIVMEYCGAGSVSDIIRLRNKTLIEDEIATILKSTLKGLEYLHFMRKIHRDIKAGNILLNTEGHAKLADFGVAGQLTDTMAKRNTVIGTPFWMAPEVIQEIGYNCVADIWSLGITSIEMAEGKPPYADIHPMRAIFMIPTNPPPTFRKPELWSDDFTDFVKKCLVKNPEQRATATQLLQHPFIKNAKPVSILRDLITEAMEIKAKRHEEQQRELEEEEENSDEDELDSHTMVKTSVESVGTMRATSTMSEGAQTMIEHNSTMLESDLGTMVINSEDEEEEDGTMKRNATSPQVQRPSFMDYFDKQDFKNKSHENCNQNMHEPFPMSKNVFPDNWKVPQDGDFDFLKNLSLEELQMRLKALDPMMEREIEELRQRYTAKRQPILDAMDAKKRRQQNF

Chain of SRPK2(h) (P78362 whole entry): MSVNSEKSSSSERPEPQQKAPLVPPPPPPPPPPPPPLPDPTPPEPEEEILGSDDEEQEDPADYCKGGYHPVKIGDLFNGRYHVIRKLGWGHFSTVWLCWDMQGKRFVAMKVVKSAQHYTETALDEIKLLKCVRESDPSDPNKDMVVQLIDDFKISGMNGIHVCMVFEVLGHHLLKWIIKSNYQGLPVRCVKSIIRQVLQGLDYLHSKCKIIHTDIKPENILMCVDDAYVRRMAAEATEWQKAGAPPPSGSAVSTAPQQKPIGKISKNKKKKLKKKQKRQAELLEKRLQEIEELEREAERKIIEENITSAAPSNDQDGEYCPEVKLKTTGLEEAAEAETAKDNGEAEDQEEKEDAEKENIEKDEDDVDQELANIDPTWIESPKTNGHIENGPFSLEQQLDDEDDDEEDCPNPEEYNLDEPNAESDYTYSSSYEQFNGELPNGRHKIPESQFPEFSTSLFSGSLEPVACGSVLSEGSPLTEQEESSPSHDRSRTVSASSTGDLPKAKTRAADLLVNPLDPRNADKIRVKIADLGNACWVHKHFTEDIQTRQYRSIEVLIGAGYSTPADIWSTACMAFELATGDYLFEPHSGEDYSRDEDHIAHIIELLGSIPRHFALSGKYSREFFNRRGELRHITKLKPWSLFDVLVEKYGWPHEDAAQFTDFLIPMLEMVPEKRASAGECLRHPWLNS
Chain of Hck(h) activated (P08631 whole entry): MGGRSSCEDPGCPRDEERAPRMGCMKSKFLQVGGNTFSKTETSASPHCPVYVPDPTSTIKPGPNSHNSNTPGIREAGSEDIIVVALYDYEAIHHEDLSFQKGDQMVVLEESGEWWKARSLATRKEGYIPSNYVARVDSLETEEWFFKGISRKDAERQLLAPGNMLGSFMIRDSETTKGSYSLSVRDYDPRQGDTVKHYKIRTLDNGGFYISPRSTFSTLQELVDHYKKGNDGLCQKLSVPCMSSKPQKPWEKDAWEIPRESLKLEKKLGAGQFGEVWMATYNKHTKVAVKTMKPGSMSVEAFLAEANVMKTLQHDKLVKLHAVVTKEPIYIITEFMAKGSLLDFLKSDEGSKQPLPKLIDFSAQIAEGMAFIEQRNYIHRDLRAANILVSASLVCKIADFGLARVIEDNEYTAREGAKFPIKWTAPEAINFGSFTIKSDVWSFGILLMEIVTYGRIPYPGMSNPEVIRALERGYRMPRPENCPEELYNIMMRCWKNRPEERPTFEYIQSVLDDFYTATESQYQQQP
Chain of ACK1(h) (Q07912 whole entry): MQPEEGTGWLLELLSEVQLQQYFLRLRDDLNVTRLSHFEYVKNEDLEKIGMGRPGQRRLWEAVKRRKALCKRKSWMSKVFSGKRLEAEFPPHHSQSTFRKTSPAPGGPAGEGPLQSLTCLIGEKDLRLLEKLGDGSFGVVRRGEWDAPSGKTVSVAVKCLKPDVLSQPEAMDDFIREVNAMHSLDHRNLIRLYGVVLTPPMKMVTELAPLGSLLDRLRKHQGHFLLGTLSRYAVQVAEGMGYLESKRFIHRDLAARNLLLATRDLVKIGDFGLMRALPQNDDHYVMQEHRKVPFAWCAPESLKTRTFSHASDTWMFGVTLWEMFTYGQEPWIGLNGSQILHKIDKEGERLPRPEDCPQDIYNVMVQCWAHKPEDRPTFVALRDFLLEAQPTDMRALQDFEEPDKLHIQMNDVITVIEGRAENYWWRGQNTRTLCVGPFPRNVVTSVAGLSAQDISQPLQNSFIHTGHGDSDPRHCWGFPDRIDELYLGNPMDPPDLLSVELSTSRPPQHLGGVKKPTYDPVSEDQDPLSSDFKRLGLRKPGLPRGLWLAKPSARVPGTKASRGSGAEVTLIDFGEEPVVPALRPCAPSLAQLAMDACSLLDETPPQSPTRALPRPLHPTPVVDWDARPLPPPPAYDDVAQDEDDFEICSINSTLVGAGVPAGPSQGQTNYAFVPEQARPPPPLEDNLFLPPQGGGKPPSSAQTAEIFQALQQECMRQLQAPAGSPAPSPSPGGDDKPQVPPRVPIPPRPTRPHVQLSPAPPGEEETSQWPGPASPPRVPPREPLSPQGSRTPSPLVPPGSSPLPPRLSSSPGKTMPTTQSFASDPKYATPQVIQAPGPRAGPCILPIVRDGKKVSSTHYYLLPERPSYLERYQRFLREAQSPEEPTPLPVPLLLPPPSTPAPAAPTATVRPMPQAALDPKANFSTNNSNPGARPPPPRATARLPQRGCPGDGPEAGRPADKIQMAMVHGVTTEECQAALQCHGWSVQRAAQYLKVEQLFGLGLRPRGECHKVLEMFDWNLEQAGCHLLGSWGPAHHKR
Chain of MST3(h) (Q9Y6E0 whole entry): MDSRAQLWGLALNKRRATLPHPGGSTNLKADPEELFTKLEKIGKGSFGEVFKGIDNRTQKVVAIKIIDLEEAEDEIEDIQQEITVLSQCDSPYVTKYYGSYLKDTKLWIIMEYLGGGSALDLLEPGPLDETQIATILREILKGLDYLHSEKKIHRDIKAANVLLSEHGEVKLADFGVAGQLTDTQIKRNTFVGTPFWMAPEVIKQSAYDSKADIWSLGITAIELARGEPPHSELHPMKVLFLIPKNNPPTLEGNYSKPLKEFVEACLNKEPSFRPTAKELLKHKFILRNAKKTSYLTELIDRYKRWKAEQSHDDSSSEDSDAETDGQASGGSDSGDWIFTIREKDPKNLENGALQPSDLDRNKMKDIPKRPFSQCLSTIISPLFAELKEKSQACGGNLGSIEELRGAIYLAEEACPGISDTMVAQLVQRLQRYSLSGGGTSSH
Chain of Flt1(h) (P17948 27-1338): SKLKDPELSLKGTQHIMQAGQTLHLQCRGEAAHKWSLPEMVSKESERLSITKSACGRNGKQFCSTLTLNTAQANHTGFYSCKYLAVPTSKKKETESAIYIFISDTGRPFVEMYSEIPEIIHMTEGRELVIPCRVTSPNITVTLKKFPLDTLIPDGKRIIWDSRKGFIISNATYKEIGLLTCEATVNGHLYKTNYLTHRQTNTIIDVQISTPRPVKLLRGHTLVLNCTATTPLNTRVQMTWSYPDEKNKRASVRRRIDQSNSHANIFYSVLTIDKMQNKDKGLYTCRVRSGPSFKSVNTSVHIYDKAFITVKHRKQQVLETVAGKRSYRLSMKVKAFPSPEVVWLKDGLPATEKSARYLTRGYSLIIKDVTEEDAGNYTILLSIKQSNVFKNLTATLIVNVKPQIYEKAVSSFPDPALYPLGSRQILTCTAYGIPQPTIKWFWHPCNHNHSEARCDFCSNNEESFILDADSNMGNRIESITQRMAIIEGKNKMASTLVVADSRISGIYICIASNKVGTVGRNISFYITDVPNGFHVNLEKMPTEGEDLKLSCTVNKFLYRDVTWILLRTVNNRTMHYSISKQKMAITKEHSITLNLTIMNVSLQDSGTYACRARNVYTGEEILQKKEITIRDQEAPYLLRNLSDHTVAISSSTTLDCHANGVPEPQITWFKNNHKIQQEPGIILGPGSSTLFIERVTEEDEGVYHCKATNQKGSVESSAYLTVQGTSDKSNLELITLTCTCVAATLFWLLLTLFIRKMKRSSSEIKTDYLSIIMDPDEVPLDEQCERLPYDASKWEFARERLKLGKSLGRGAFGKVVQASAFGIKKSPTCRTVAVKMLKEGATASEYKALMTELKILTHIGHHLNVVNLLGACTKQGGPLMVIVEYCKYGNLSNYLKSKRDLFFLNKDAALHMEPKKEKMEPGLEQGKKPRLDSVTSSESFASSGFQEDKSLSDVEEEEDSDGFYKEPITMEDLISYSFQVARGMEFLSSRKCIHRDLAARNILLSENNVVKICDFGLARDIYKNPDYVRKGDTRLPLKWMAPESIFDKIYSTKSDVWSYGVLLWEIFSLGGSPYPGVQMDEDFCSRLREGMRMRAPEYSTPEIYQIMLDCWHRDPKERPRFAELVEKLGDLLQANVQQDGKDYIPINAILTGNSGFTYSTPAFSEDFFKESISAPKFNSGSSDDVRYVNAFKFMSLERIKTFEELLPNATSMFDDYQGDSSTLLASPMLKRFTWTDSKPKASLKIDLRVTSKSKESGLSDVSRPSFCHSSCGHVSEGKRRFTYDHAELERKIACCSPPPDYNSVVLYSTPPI

Sequence	% activity (SRPK2(h)) [%]	% activity (Flt1(h)) [%]	% activity (ACK1(h)) [%]	% activity (IGF-1R(h), activated) [%]	% activity (MST3(h)) [%]	% activity (Hck(h) activated) [%]	% activity (EGFR(T790M, L858R)(h)) [%]	% activity (EGFR(L858R)(h)) [%]	% activity (NEK11(h)) [%]	% activity (NEK6(h)) [%]	% activity (EphB4(h)) [%]	% activity (Mnk2(h)) [%]	% activity (GSK3α(h)) [%]	% activity (MST2(h)) [%]
YARAAARQARAKALNRQLGVA [MMI-0200]	100	96	97	94	95	100	108	120	95	98	131	–	–	–
FAKLAARLYRKALARQLGVAA [MMI-0300]	–	69	–	80	45	82	85	–	53	82	44	89	157	19
KAFAKLAARLYRKALARQLGVAA [MMI-0400]	97	48	95	77	36	81	78	52	33	85	28	86	164	11
HRRIKAWLKKIKALARQLGVAA [MMI-0500]	80	27	64	45	4	67	53	26	2	49	38	6	175	2
